Results reported in the supplement of paper PMC7125110.
± gives the standard error. For part of these data: Fewer inactive variants are shown than the library holds.

B1: glmS ribozyme (parent)
chain: AUAAAAGCGCCAGAACUACAGAAAUGUAGUUGACGAGGAGGAGGUUUAUCGAAUUUUCGGCGGAUGCCUCCAAA

Key:
Conditions in all cases: with glucosamine-6-phosphate
[1] = variants of: B1; test: kcat; higher = faster cleavage; RNA array
Outline: (§1)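 kcat and KM were obtained from weighted Michaelis–Menten fits across concentrations of kobs values. Those came from one- or two-exponential decay fits to per-tile medians normalised to baseline and to non-cleaving reference variants. The variants were barcoded ribozymes transcribed in situ by E. coli RNA polymerase on sequenced MiSeq chips and tracked through a hybridised Cy3 probe at 37 °C, with 40 μM to 10 mM glucosamine-6-phosphate in HEPES/KCl/Mg(OAc)2 buffer flowed in.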

[2] = variants of: B1; test: KM; higher = weaker cofactor use; RNA array
Outline: as §1

[3] = variants of: B1; test: self-cleavage kobs at 160 uM GlcN6P; higher = faster cleavage; RNA array
Outline: as §1

[4] = variants of: B1; test: self-cleavage kobs at 640 uM GlcN6P; higher = faster cleavage; RNA array
Outline: as §1

[5] = variants of: B1; test: self-cleavage kobs at 2500 uM GlcN6P; higher = faster cleavage; RNA array
Outline: as §1

[6] = variants of: B1; test: self-cleavage kobs at 10000 uM GlcN6P; higher = faster cleavage; RNA array
Outline: as §1

[7] = variants of: B1; test: self-cleavage kobs at 40 uM GlcN6P; higher = faster cleavage; RNA array
Outline: as §1

Row | Variant | kcat [1] [s⁻¹] | KM [2] [µM] | self-cleavage kobs at 160 uM GlcN6P [3] [s⁻¹] | self-cleavage kobs at 640 uM GlcN6P [4] [s⁻¹] | self-cleavage kobs at 2500 uM GlcN6P [5] [s⁻¹] | self-cleavage kobs at 10000 uM GlcN6P [6] [s⁻¹] | self-cleavage kobs at 40 uM GlcN6P [7] [s⁻¹]
1 | A6G A14G | 0.00132 ± 0.00026 | 3740 ± 1200 | 7.41e-05 ± 1.7e-05 | 0.000162 ± 4.1e-05 | 0.000514 ± 7.9e-05 | 0.000992 ± 0.00016 | –
2 | A52G C67U | 0.000905 ± 0.00016 | 2370 ± 740 | 7.98e-05 ± 1.7e-05 | 0.000166 ± 2.3e-05 | 0.000524 ± 8.6e-05 | 0.000728 ± 8.4e-05 | 2.66e-05 ± 1.3e-05
3 | A14G A36G | 4.89e-05 ± 6.4e-07 | 854 ± 82 | – | – | 3.69e-05 ± 1.2e-05 | 4.49e-05 ± 6.3e-06 | –
4 | A48G A53C | 5.9e-05 ± 9.7e-06 | – | – | – | 7.97e-05 ± 1.7e-05 | 5.4e-05 ± 7.2e-06 | –
5 | A15U C71A | 0.000688 ± 4.8e-05 | 1050 ± 120 | 8.62e-05 ± 8.8e-06 | 0.000278 ± 3.4e-05 | 0.000497 ± 6.4e-05 | 0.000605 ± 7e-05 | 3.22e-05 ± 8.9e-06
6 | G37A C68U | 6.89e-05 ± 7.5e-06 | 2690 ± 820 | – | 1.94e-05 ± 7.7e-06 | 3.08e-05 ± 5.5e-06 | 5.51e-05 ± 6e-06 | –
7 | U54G A64U | 9.79e-05 ± 1.5e-05 | – | – | 1.94e-05 ± 7.4e-06 | 7.47e-05 ± 9.1e-06 | 8.01e-05 ± 8e-06 | –
8 | C8G G60A | < 1e-05 | – | – | – | – | < 1e-05 | < 1e-05
9 | C16A G40A | 0.000202 ± 6.3e-05 | – | – | – | 0.000155 ± 2.1e-05 | 0.000154 ± 2.9e-05 | –
10 | G9U C34G C58G C68U | 4.14e-05 ± 1.9e-05 | – | 5.81e-05 ± 2.8e-05 | – | – | – | –
11 | U30C U56A | 0.000339 ± 6.9e-06 | 2910 ± 110 | – | 6.11e-05 ± 6.9e-06 | 0.000155 ± 1.6e-05 | 0.000263 ± 2.4e-05 | –
12 | G13C U45G | 3.74e-05 ± 3.6e-06 | – | – | – | – | 3.22e-05 ± 1.2e-05 | < 1e-05
13 | U56G U57G | < 1e-05 | – | – | – | – | < 1e-05 | –
14 | U56A U65C | 0.00025 ± 5.7e-05 | – | – | 0.000242 ± 6.3e-05 | 0.000177 ± 4.4e-05 | 0.000248 ± 4.7e-05 | –
15 | A33G C67U | 2.01e-05 ± 2.6e-06 | 1350 ± 420 | – | – | – | – | –
16 | A6U A15C A48U U69G | 2.37e-05 ± 7.1e-06 | – | – | – | – | – | < 1e-05
17 | U47A A52G | 0.00213 ± 0.00047 | 5080 ± 1600 | 8.42e-05 ± 1.9e-05 | 0.000221 ± 3.3e-05 | 0.000661 ± 9.9e-05 | 0.00146 ± 0.0002 | 3.28e-05 ± 1.5e-05
18 | C8U C10U | < 1e-05 | – | – | < 1e-05 | – | – | < 1e-05
